Laboratory results taken from US20150064217A1, “PLURIPOTENT GERM LAYER ORIGIN ANTIGEN PRESENTING CANCER VACCINE” (CALIFORNIA STEM CELL, INC., priority 2012, published 2015).

Columns and labels:
melanoma cell lines [1] = test: Apoptosis and autophagy induction in melanoma cell lines (7-AAD, annexin-V, LC3 II); format: cell-based
Experimental: (§1) The methodology of the study was as follows. Autologous and model melanoma tumor cell lines were incubated with 1000 IU/mL of IFN-gamma for 72 hours prior to assaying for autophagy, apoptosis and MHC class II expression. Autophagy was detected by immunobloting with antibodies against LC3 II and by flow cytometry with Enzo's CytoID® Autophagy Detection Kit. Apoptosis and MHC class II induction were assayed by flow cytometry using 7-AAD and annexin-V staining and antibodies against MHC class II, respectively. 7-AAD intercalates in dsDNA. 7-AAD is excluded by viable cells, and thus it can be used to detect dead cells.
Analysis of tumor cell death and changes in major histocompatibility class II expression in response to IFN-gamma were conducted by use of antibodies directed against MHC class II, annexin-V and 7-amino-actinomycin D (7-AAD) and acquired on a Beckton-Dickenson FACS Calibur® flow cytometer. […]
(§2) What was investigated was the induction of autophagy, apoptosis and MHC class II molecules after IFN-gamma treatment of melanoma tumor cells in vitro. […] Autophagy was detected by immunobloting with antibodies against LC3 II and by flow cytometry with Enzo's CytoID Autophagy Detection Kit. […]

SK-5-Mel cells = test: MHC class II (HLA-DR) expression by flow cytometry with autophagy inhibitor; format: cell-based; conditions: autophagy inhibitor together with interferon-gamma
Experimental: The cells were then harvested and assayed for apoptosis and MHC class II (HLA-DR) expression by flow cytometry.
as §1
Analysis of tumor cell death and changes in major histocompatibility class II expression in response to IFN-gamma were conducted by use of antibodies directed against MHC class II, annexin-V and 7-amino-actinomycin D (7-AAD) and acquired on a Beckton-Dickenson FACS Calibur® flow cytometer.
as §2

[2] = test system: Renal Cell Carcinoma tumor cell line; test: Response to interferon-gamma by flow cytometry, renal cell carcinoma cell line; format: cell-based; conditions: Sample D, interferon-gamma 72 hours
From the text: (§3) Pure tumor cells were generated from colon, ovarian, glioblastoma, and renal cell carcinoma according to Dillman and Comforth, et al. (Cornforth, et al. (2011) Cancer Immunol. Immunother. 60:123-131; Dillman, et al. (1993) J. Immunother. Emphasis Tumor Immunol. 14:65-69; Dillman, et al. (2000) Cancer Biother. Radiopharm. 15:161-168; Dillman, et al. (1999) 14:443-449; Dillman et al. (2000) 15:161-168).
(§4) Briefly, tumor biopsies from surgical samples were enzymatically processed into single cell suspensions and purified cell lines generated by differential attachment and serum starvation. The cell lines generated were cryopreserved in liquid nitrogen, thawed and treated with or without interferon-gamma in 5% fetal bovine serum/RPMI media for 72 hours. After exposure to interferon-gamma, the non-adherent cells were analyzed separately from the adherent cells by flow-cytometry. The markers investigated were MHC class I, MHC class II, Annexin V (apoptosis), and 7-ADD (viability).

[3] = test system: autologous melanoma tumor cells; test: Immunoblotting of melanoma cell lysates; format: cell-based, human; conditions: cells incubated with IFN-gamma
Experimental: Cytoplasmic cell lysates were prepared with Mammalian Protein Extraction Reagent (Thermo Scientific, Rockford, Ill.) plus protease inhibitor cocktail (Roche, Indianapolis, Ind.) at 10,000 cells/uL on ice. Approximately 25 uLs/lane of cell lysates were separated on 12.5% tris-glycine gels, transferred to PVDF membrane and probed with antibodies against the following: calreticulin (MBL, Woburn, Mass.), Hsp-60, Hsp-70, Hsp-90 (R&D Systems, Minneapolis, Minn.), HMBG-1 (Cell Signaling, Danvers, Mass.), ICAM-1 (Santa Cruz Biotech, Santa Cruz, Calif.), Mel-4, Mart-1 (Signet, Emeryville, Calif.), tyrosinase (Upstate, Lake Placid, N.Y.) and GADPH (Calbiochem, Darmstadt, Germany).

Ovarian tumor cell line = test: Response to interferon-gamma by flow cytometry, ovarian tumor cell line; format: cell-based; conditions: Sample B, interferon-gamma 72 hours
From the text: as §3, §4

[4] = test system: Glioblastoma tumor cell line; test: Response to interferon-gamma by flow cytometry, glioblastoma cell line; format: cell-based; conditions: Sample C, interferon-gamma 72 hours
From the text: as §3, §4

Colon tumor cell line = test: Response to interferon-gamma by flow cytometry, colon tumor cell line; format: cell-based; conditions: Sample A, interferon-gamma 72 hours
From the text: as §3, §4

[5] = test system: autologous melanoma cells; test: Flow cytometry for MHC class I and class II on autologous melanoma cells; format: cell-based, human; conditions: in response to IFN-gamma treatment
Experimental: FIGS. 2A-D show characterization of IFN-gamma treated autologous tumor cells used for loading dendritic cells. Autologous melanoma tumor cells were treated with or without 1000 IU/mL IFN-gamma for 72 hours in 15% FBS/ECS in RPMI, harvested and irradiated with 100 Gy and cryopreserved. Cells were then thawed in AIMV and a sample taken for flow cytometry and for preparation of cell lysates for immunoblotting prior to antigen loading of DCs. An example of four separate autologous melanoma cell lines is shown (FIG. 2A, FIG. 2B and FIG. 2C). Induction major histocompatibility complexes by IFN-gamma treatment of autologous tumor cells (FIG. 2D). Tumor cells were harvested after being treated with or without 1000 IU/mL IFN-gamma for 72 hours and then assayed for MHC class I and class II. Control isotype antibodies were used to identify positive populations. Dark data points indicate median mean fluorescent plus/minus 95% confidence interval. N=65. After irradiation, melanoma cells are checked by assays to ensure that there is not any mitosis. […]

melanoma cell lines [6] = test: Immunohistochemistry of tumor associated antigens in melanoma cell lines with or without IFN-gamma; format: cell-based, human; conditions: share of melanoma cell lines; 1000 IU/mL IFN-gamma, 72 hours; N = 27 samples
Experimental: Expression of a panel antigens by melanoma lines were determined using immunocytochemical procedure. Cells were cultured in 8-chamber culture slides (Thermo Fisher, Rochester, N.Y.) in the presence or absence of 1000 IU/mL IFN-gamma. After 72 hours, the cells were washed 3 times with 1× Phosphate Buffered Saline (PBS) and fixed in cold acetone. After blocking endogenous peroxidase, cells were incubated with appropriate primary antibodies against the antigens listed. Immunohistochemistry was performed using biotinylated anitmouse or rabbit immunoglobulins, Super Sensitive enzyme-conjugated streptavidin labeling and horse radish peroxidase chromogen, and substrate kits (Biogenex, San Ramon, Calif.). The reactivity of the following anti-human polyclonal or monoclonal antibodies was investigated with isotype matched control antibody: S-100 and HMB-45 (Biogenex, San Ramon, Calif.), Mel-2, Mel-5, Mart-1 (Signet, Dedham, Mass.), Tyrosinase and Mage-1 (Thermo Scientific, Fremont, Calif.), Melan-A, HLA-class I and HLA-class II (Dako, Denmark).

“carbobenzoxy-valyl-alanyl-aspartyl-[O-methyl]-fluoromethylketone [Z-VAD, reference compound]” was tested, and the “apoptosis in IFN-gamma treated cells” value (melanoma cell lines [1]; pan caspase inhibitor with IFN-gamma) was “prevents apoptosis”.

In the case of Cn1cnc(N)c2ncnc1-2 [3-MA, 3-methyladenine], the “MHC class II expression despite treatment with interferon-gamma” value (SK-5-Mel cells) is reported as “loss of MHC class II expression”.

B1: interferon-gamma (protein, UniProt P01579 24-161, looked up)
Interferon gamma: QDPYVKEAENLKKYFNAGHSDVADNGTLFLGILKNWKEESDRKIMQSQIVSFYFKLFKNFKDDQSIQKSVETIKEDMNVKFFNSNKKKRDDFEKLTNYSVTDLNVQRKAIHELIQVMAELSPAAKTGKRKRSQMLFRG
notes: type II interferon (InterMune, Brisbane, Calif.) used to treat tumor cells in vitro
For B1, the “Induction of MHC class I” value [2] was “No”, the “Induction of MHC class II” value [2] was “Yes” and the Induction of apoptosis [2] was “Yes”. The Induction of autophagy [2] was “Yes”, the “ICAM-1, immunoblot” value [3] was “significantly up-regulated” and the “calreticulin and high-mobility group box-1 protein (HMGB-1), immunoblot” value [3] was “up-regulated in some cases”. The “common melanoma antigens (mel-4, Mart-1 and tyrosinase), immunoblot” value [3] was “down regulated”, the “Induction of MHC class I” value (Ovarian tumor cell line) was “Yes” and the “Induction of MHC class II” value (Ovarian tumor cell line) was “Yes”. For the same molecule, the Induction of apoptosis (Ovarian tumor cell line) was “No”, the Induction of autophagy (Ovarian tumor cell line) was “Yes” and the “Induction of MHC class I” value [4] was “No”. For the same molecule, the “Induction of MHC class II” value [4] was “Yes”, the Induction of apoptosis [4] was “Yes” and the Induction of autophagy [4] was “Yes”. For the same molecule, the “Induction of MHC class I” value (Colon tumor cell line) was “Yes”, the “Induction of MHC class II” value (Colon tumor cell line) was “Yes” and the Induction of apoptosis (Colon tumor cell line) was “No”. For the same molecule, the Induction of autophagy (Colon tumor cell line) was “Yes”, the “cases with MHC class II induction greater than two fold” value [5] was 70% and the “HMB-45 expression: Change after IFN-gamma treatment, Down” value (melanoma cell lines [6]) was 45/5. For the same molecule, the “HMB-45 expression: Change after IFN-gamma treatment, None” value (melanoma cell lines [6]) was 54.5%, the “MAGE-1 expression: Change after IFN-gamma treatment, Down” value (melanoma cell lines [6]) was 61.5% and the “MAGE-1 expression: Change after IFN-gamma treatment, None” value (melanoma cell lines [6]) was 38.5%. For the same molecule, the “MART-1 expression: Change after IFN-gamma treatment, Down” value (melanoma cell lines [6]) was 85.2%, the “MART-1 expression: Change after IFN-gamma treatment, None” value (melanoma cell lines [6]) was 14.8% and the “Mel-2 expression: Change after IFN-gamma treatment, Down” value (melanoma cell lines [6]) was 53.8%. The “Mel-2 expression: Change after IFN-gamma treatment, None” value (melanoma cell lines [6]) was 46.2%, the “Mel-5 expression: Change after IFN-gamma treatment, Down” value (melanoma cell lines [6]) was 27.3% and the “Mel-5 expression: Change after IFN-gamma treatment, None” value (melanoma cell lines [6]) was 72.7%. For the same molecule, the “Melan-A expression: Change after IFN-gamma treatment, Down” value (melanoma cell lines [6]) was 70.8%, the “Melan-A expression: Change after IFN-gamma treatment, None” value (melanoma cell lines [6]) was 29.2% and the “S-100 expression: Change after IFN-gamma treatment, Down” value (melanoma cell lines [6]) was 57.1%. For the same molecule, the “S-100 expression: Change after IFN-gamma treatment, None” value (melanoma cell lines [6]) was 42.9%, the “Tyrosinase expression: Change after IFN-gamma treatment, Down” value (melanoma cell lines [6]) was 60.0% and the “Tyrosinase expression: Change after IFN-gamma treatment, None” value (melanoma cell lines [6]) was 40.0%. For the same molecule, the “induction of autophagic and apoptotic cell populations” value (melanoma cell lines [1]; 1000 IU/mL IFN-gamma, 72 hours) was “induces both autophagic and apoptotic cell populations”.
